How the values were obtained:
[1] = Tolerability during the immunization period; type: in vivo, C57BL6 mice; conditions: i.n. or s.c. immunization
Experimental: Experimental protocol 1: six-eight weeks-old female C57BL6 mice were purchased from Harlan Winkelmann GmbH (Borchen, Germany) and treated in accordance with local and European Community guidelines. Groups of 5 mice each were immunized on day 1, 14 and 28 with 30 μg of Ova (Sigma Chemie, Deisenhofen, Germany) or LPS-free Ova (EndoGrade Ovalbumin, Hyglos GmbH) alone, co-administered with 5 μg of BPPcysMPEG or with 5 to 10 μg of synthetic BPPcysOva^mPEG alone. For intranasal (i.n.) immunization, 10 μl were applied to each naris, whereas for the s.c. the compounds were resuspended in 50 μl of PBS per dose. Serum samples were collected at different time points (day 0, 13, 27 and 38) after immunization and stored at −20° C. prior to determination of Ova-specific antibodies. 96-well Nunc-Immuno MaxiSorp assay plates (Nunc, Roskilde, Denmark) were coated with 100 μl of Ova (Sigma Chemie, Deisenhofen, Germany) at 5 μg/ml in 0.05 M carbonate buffer (pH 8.2) per well. Serial two-fold dilutions of sera or lavages in PBS with 1% BSA and 0.05% Tween 20 were added (100 μl/well), and plates incubated for 2 h at 37° C. […] Endpoint titers were expressed as the reciprocal log2 of the last dilution, which gave an optical density at 405 nm of 0.1 units above the values of the negative controls after 15 to 30 min of incubation. […]

[2] = test system: IFNgamma, IL-2, IL-4 and IL-17-secreting cells; assay: ELISPOT of cytokine-secreting spleen cells in immunized mice; type: in vivo
Experimental: (§1) Experimental protocol: Spleens were removed and pooled for analysis of cellular immune responses. Cells were grown in RPMI 1640 supplemented with 10% fetal calf serum, 100 U/ml of penicillin, 50 μg/ml of streptomycin, 5×10^−5 M 2-mercaptoethanol and 1 mM L-glutamine (GIBCO BRL, Karlsruhe, Germany) and maintained at 37° C. in a humidified 5% CO2 atmosphere. Lymph node and spleen cell suspensions were adjusted to 5×10^6 cells/ml in complete medium, cells were seeded with 100 μl per well in a flat-bottomed 96-well microtiter plate (Nunc) and plates were incubated for 4 days in the presence of different concentrations of soluble Ova. Each concentration was tested in triplicates.
FIG. 7: Detection of IFNgamma, IL-2, IL-4 and IL-17-secreting cells in immunized mice. Spleen cells (1×10^6 and 5×10^5 cells/well) recovered from animals vaccinated by the (A) i.n. or (B) s.c. route were incubated in the presence of either the Ova protein (for IL2 and IL4) or a Ova peptide (TPHPARIGL) encompassing its immunodominant MHC class I-restricted epitope (for IFNgamma). Then, the numbers of IFNgamma, IL2, IL4 and IL-17-producing cells was determined by ELISPOT. Results are presented as spot forming units per 10^6 cells, which were subtracted from the values obtained from non-stimulated cells. The SEM of triplicates is indicated by vertical lines.

[3] = test system: spleen cells; assay: Proliferation of spleen cells of immunized mice after in vitro restimulation with Ova, day 42 (Example 5); type: in vivo; conditions: s.c., restimulation with 0.1 up to 40 μg/ml Ova
Experimental: as §1, with “of” for “of soluble”, “triplicates. During the final 18 h of culture, 1 μCi of [^3H]thymidine (Amersham International, Freiburg, Germany) was added to each well. Cells were then harvested on paper filters (Filtermat A; Wallac, Freiburg, Germany) by using a cell harvester (Inotech, Wohlen, Switzerland), and the amount of incorporated [^3H]thymidine into the DNA of proliferating cells was determined by a β-scintillation counter (Wallac 1450, Micro-Trilux). The results are expressed as the arithmetic mean of [^3H]thymidine uptake in cpm.” for “triplicates.”
T cell-mediated immune responses were investigated at day 42 by measuring the proliferation of cells recovered from spleens after in vitro restimulation with Ova. […]

B1: Ova: model antigen ovalbumin (Sigma Chemie) (protein, UniProt P01012 2-386, looked up)
Ovalbumin: GSIGAASMEFCFDVFKELKVHHANENIFYCPIAIMSALAMVYLGAKDSTRTQINKVVRFDKLPGFGDSIEAQCGTSVNVHSSLRDILNQITKPNDVYSFSLASRLYAEERYPILPEYLQCVKELYRGGLEPINFQTAADQARELINSWVESQTNGIIRNVLQPSSVDSQTAMVLVNAIVFKGLWEKAFKDEDTQAMPFRVTEQESKPVQMMYQIGLFRVASMASEKMKILELPFASGTMSMLVLLPDEVSGLEQLESIINFEKLTEWTSSNVMEERKIKVYLPRMKMEEKYNLTSVLMAMGITDVFSSSANLSGISSAESLKISQAVHAAHAEINEAGREVVGSAEAGVDAASVSEEFRADHPFLFCIKHIATNAVLFFGRCVSP
adverse effect during the immunization period [1]: no adverse effect | IFNγ producing cells after i.n. administration [2]: narrowly detectable | proliferative response of spleen cells, s.c. immunization [3]: significant proliferative response
